# Assay results taken from the RNAGym collection of RNA variant scans (doi:10.1021/acssynbio.7b00057).
# B1: Pistol ribozyme (parent)
# chain: GGGUCGUUGUUCCAUAAUCGCGUGGAUAUGGCACGCAAGUUUCUACCGGGCACCGUAAAUGUCCGACUGGAGCCGUUCGGGCGGCUAUAAACAGACCUCAGGCCCGAAGCGUGGCGGCACCUGCCGCCGGUGGUAAAAAAGAUCGGAAGAGCACACGUCU
# Variants of: B1
# Test: aptazyme ON/OFF ratio, guanine; higher = stronger switching; co-transcriptional cleavage with and without guanine
row,Variant,aptazyme ON/OFF ratio
1,U8C G9A U11G C12U C13A,1.34
2,U8C G9A U11G C12U C13G,1.29
3,U8C G9A U11G C12U C13U,1.22
4,U8C G9A U10C U11G C12A,1.25
5,U8C G9A U10C U11G C12U,1.29
6,U8C G9A U10C U11G C12G,1.27
7,U8C G9A C12G C13U,1.26
8,U8C G9A C12G C13A,1.23
9,U8C G9A C12G C13G,1.27
10,U8C G9A U10C U11A C12A C13G,1.27
11,U8C G9A U10C U11A C12A C13U,1.19
12,U8C G9A U10C U11A C12A C13A,1.23
13,U8C G9A U10C U11G C12A C13A,1.44
14,U8C G9A U10C U11G C12A C13U,1.4
15,U8C G9A U10C U11G C12A C13G,1.27
16,U8C G9A U10G U11A C12G C13A,1.19
17,U8C G9A U10G U11A C12G C13U,1.22
18,U8C G9A U10G U11A C12G C13G,1.35
19,U8C G9A U10C C12U C13A,1.29
20,U8C G9A U10C C12U C13U,1.21
21,U8C G9A U10C C12U C13G,1.26

row,Variant,aptazyme ON/OFF ratio
1,U8C G9C U10A C12A C13G,1.15
2,U8C G9C U10A C12A C13A,1.09
3,U8C G9C U10A C12A C13U,1.11
4,U8C G9A U11G C13A,1.23
5,U8C G9A U11G C13G,1.27
6,U8C G9A U11G C13U,1.15
7,U8A U11G C12U C13U,1.11
8,U8A U11G C12U C13G,1.1
9,U8C G9A U10A U11C,1.05
10,U8C G9A U10A U11A,1.47
11,U8C G9A U10A U11G,1.45
12,U8C G9C U10A C13G,1.16
13,U8C G9C U10A C13A,1.08
14,U8C G9C U10A C13U,1.07
15,U8C G9A U10C U11C C12U C13A,1.1
16,U8C G9A U10C U11C C12U C13G,1.03
17,U8C G9A U10C U11C C12U C13U,1.09
18,U8C G9A U10C U11A C12U C13A,1.37
19,U8C G9A U10C U11A C12U C13U,1.28
20,U8C G9A U10C U11A C12U C13G,1.33
21,U8C G9A U10A U11G C12A,1.04

row,Variant,aptazyme ON/OFF ratio
1,U8C G9A U10A U11G C12U,1.26
2,U8C G9A U10A U11G C12G,1.12
3,U8C G9C C13A,1.05
4,U8C G9C C13G,1.06
5,U8C G9C C13U,1.08
6,U8C G9A U11C C12U C13G,1.08
7,U8C G9A U11C C12U C13U,1.22
8,U8C G9A U11C C12U C13A,1.16
9,U8C G9A U10G U11A C13G,1.04
10,U8C G9A U10G U11A C13U,1.02
11,U8C G9A U10G U11A C13A,1.03
12,U8C G9A U10G U11G C12U C13G,1.1
13,U8C G9A U10G U11G C12U C13U,1.22
14,U8C G9A U10G U11G C12U C13A,1.09
15,U8C G9A U11A C12U C13G,1.14
16,U8C G9A U11A C12U C13U,1.29
17,U8C G9A U11A C12U C13A,1.21
18,U8C G9A U10G U11A C12A C13A,1.14
19,U8C G9A U10G U11A C12A C13U,1.15
20,U8C G9A U10G U11A C12A C13G,1.12
21,U8C G9A U10G C12U C13A,1.19

row,Variant,aptazyme ON/OFF ratio
1,U8C G9A U10G C12U C13G,1.2
2,U8C G9A U10G C12U C13U,1.54
3,U8C G9A U10A U11G C12G C13U,1.14
4,U8C G9A U10A U11G C12G C13G,1.17
5,U8C G9A U10A U11G C12G C13A,1.16
6,U8C G9A U10A U11C C13G,1.04
7,U8C G9A U10A U11C C13U,1.06
8,U8C G9A U10A U11C C13A,1.05
9,U8C G9A,1.78
10,U8C G9C,1.12
11,U8C G9C U10A U11C C12G C13G,1.16
12,U8C G9C U10A U11C C12G C13A,1.23
13,U8C G9C U10A U11C C12G C13U,1.27
14,U8C G9A U10G U11G C12G,1.21
15,U8C G9A U10G U11G C12U,1.24
16,U8C G9A U10G U11G C12A,1.12
17,U8C G9A U11C C13A,1.06
18,U8C G9A U11C C13U,1.04
19,U8C G9A U11C C13G,1.04
20,U8C C12A C13G,1.1
